{
  "source": "patent US20180244758A1",
  "about": "(MAPP BIOPHARMACEUTICAL, published 2018)",
  "binders": {"B1": {"name": "mAb PE-16 (antibody, V domains shown)", "VH": "QVQLVQSGAEVTKPGASVKVSCKASGYTFTTYYMHWVRQAPGQGLEWVGIINPSGGITRYAQKFQGRVTLTRDTSTTTVYMELSSLRSEDTAVYYCARDRYPVLFATDYGMDVWGQGTTVTVSS", "VL": "DIVMTQSPATLSLSPGERATLSCRASQSVSGYLAWYQQKPGQAPRLLIYDASNRATGIPARFSGSGSGTDFTLTISSLEPEDFAVYYCQQRSIWPPGVTFGGGTKVEIK"}, "B2": {"name": "mAb PE-47 (antibody, V domains shown)", "VH": "EVQLVESGGGLVKPGGSLRLSCAASGFTFSNAWMSWVRQAPGEGLEWVGRIKSKTDGGTIDYAAPVKGRFTISRDDSKNTVYLQMTSLKTEDTAVYYCTTYTEDMQYFDWLLRGGETFDYWGQGTLVTVSS", "VL": "DIQMTQSPSSLSASVGDRVTITCRASQYISTYLNWYQQKPGKAPKLLIYAAYNLQSGVPSRFSGSGSGTDFTLTISSLQPEDFATYYCQQSYSTPGRYTFGQGTKVEIK"}, "B3": {"name": "mAb PE-87 (antibody, V domains shown)", "VH": "QVQLVQSGVTLVQPGGSLRVSCAASGFTFSSYAMSWVRQAPGKGLEWVSAISGLGGSTYYADSVKGRFTISRDNSKNTLYLQMNSLRAEDTAVYYCAKDHRVWAAGYHFDYWGQGALVTVSS", "VL": "DIVLTQSPSTLSASVGDRVTITCRASQSISSWLAWYQQKPGEAPKLLISDASSLESGVPSRFSGSGSGTEFTLTISSLQPDDFATYYCQQYYSSPTFGGGTKVEIK"}, "B4": {"name": "mAb PE-24 (antibody, V domains shown)", "VH": "EVQLVESGGGLVQPGGSLRLSCAASGFTFSSYAMSWVRQAPGKGLEWVSEISGLGGSTYYADSAKGRFTISRDNSKSTLYLQMNSLRAEDTAVYYCAKDHRVWAPGYYFDHWGQGTLVTVSS", "VL": "B3 VL with E42K, S49Y, Y87F, Y92N, S93R"}, "B5": {"name": "mAb PE-05 (antibody, V domains shown)", "VH": "QVQLQESGGGLVKPGRSLRLSCTASGFTFGDYAMSWFRQAPGKGLEWVGFLRSKAYGGTAEYAASVKGRFTMSRDDSKSIAYLQMNSLKTEDTAVYFCTRDGFRGSSWGYSYYGMDVWGQGTTVTVSS", "VL": "not shown"}},
  "note": "Residue numbers refer to the chain shown, from its start.",
  "data": [
    {"molecular_target": "T1, sGP (UniProt P60170 33-324)", "T1 sequence": "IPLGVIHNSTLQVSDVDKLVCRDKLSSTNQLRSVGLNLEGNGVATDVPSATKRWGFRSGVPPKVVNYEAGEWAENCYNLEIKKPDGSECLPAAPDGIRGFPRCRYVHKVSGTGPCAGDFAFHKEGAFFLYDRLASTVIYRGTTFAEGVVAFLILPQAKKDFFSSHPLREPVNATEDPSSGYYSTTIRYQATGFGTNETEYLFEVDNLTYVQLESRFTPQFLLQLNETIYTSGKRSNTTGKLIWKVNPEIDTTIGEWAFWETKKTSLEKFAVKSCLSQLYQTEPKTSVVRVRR", "assay": "ELISA, GP antigen coated", "values": [
      {"binder": "B1", "binding result": "no binding (tested: 0.2 µg/ml)"},
      {"binder": "B2", "binding result": "no binding (tested: 0.2 µg/ml)"},
      {"binder": "B3", "binding result": "no binding (tested: 0.2 µg/ml)"},
      {"binder": "B4", "binding result": "no binding (tested: 0.2 µg/ml)"}
    ]},
    {"molecular_target": "T2, MARV GP (Marburg virus (MARV), UniProt P35253 19-637)", "T2 sequence": "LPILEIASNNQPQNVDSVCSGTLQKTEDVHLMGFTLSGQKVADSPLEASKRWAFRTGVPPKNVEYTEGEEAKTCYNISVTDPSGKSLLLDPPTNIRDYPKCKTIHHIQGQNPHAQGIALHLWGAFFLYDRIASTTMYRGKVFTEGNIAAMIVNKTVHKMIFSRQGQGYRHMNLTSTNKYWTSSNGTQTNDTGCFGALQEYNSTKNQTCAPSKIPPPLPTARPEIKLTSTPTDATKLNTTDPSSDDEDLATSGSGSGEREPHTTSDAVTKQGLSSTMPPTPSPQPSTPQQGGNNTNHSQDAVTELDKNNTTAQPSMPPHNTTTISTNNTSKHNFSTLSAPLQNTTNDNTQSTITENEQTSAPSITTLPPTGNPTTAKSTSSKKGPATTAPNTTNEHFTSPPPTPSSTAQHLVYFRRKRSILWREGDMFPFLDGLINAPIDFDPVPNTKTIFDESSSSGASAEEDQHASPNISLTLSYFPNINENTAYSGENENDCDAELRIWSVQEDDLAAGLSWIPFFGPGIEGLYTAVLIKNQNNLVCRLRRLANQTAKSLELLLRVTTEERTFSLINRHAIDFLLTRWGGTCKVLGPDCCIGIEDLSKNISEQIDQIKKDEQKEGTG", "assay": "ELISA, GP antigen coated", "values": [
      {"binder": "B1", "binding result": "no binding (tested: 0.2 µg/ml)"},
      {"binder": "B2", "binding result": "no binding (tested: 0.2 µg/ml)"},
      {"binder": "B3", "binding result": "no binding (tested: 0.2 µg/ml)"},
      {"binder": "B4", "binding result": "no binding (tested: 0.2 µg/ml)"},
      {"binder": "B5", "binding result": "no binding (tested: 0.2 µg/ml)"}
    ]},
    {"molecular_target": "T3, EBOV GP (Ebola virus (EBOV), UniProt Q05320 33-637)", "T3 sequence": "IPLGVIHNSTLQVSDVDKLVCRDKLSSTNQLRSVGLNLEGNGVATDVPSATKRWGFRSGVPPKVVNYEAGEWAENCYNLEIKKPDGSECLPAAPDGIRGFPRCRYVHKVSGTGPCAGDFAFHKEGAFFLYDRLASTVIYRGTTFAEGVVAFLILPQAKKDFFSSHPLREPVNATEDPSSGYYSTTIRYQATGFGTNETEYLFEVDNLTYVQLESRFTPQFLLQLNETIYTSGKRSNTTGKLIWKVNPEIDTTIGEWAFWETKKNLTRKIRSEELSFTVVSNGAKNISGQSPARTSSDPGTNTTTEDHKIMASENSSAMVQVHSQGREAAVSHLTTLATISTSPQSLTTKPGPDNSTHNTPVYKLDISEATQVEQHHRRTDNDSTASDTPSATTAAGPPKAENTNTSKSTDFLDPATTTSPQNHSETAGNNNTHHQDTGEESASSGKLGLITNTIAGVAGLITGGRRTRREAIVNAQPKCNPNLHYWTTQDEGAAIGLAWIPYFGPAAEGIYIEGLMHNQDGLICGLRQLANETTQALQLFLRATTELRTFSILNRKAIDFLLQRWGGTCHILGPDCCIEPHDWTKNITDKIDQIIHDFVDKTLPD", "assay": "not given", "units": {"Kd": "pM"}, "values": [
      {"binder": "B1", "Kd": 160},
      {"binder": "B2", "Kd": 3500},
      {"binder": "B3", "Kd": "< 10"},
      {"binder": "B4", "Kd": 1000},
      {"binder": "B5", "Kd": 44000}
    ]},
    {"molecular_target": "T4, GP of authentic (wild-type) EBOV (Ebola virus (EBOV), UniProt P87666 33-676)", "T4 sequence": "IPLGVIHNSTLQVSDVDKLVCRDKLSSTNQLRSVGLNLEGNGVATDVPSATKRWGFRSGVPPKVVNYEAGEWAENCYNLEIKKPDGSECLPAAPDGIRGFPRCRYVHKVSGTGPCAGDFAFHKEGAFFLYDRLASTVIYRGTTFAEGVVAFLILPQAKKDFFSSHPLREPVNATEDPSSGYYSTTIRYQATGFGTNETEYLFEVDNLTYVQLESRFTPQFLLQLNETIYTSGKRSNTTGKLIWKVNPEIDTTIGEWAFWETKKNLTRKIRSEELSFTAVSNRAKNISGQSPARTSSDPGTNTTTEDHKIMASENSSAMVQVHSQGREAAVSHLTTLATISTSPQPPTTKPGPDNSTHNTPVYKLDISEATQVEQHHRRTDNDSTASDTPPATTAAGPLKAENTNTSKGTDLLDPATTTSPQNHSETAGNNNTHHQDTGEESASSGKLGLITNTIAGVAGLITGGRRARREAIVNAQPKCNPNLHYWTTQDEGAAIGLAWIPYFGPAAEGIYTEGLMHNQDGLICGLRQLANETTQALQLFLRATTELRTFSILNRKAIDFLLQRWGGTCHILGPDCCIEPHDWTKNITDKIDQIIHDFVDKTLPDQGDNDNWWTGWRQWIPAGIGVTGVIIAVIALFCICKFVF", "assay": "cell-based or functional assay", "units": {"Authentic virus neutralization IC50": "pM"}, "values": [
      {"binder": "B1", "Authentic virus neutralization IC50": 100},
      {"binder": "B3", "Authentic virus neutralization IC50": 200},
      {"binder": "B4", "Authentic virus neutralization IC50": 700},
      {"binder": "B5", "Authentic virus neutralization IC50": 5200}
    ]},
    {"molecular_target": "T5, GP of authentic (wild-type) SUDV (Sudan virus (SUDV), UniProt Q66814 33-676)", "T5 sequence": "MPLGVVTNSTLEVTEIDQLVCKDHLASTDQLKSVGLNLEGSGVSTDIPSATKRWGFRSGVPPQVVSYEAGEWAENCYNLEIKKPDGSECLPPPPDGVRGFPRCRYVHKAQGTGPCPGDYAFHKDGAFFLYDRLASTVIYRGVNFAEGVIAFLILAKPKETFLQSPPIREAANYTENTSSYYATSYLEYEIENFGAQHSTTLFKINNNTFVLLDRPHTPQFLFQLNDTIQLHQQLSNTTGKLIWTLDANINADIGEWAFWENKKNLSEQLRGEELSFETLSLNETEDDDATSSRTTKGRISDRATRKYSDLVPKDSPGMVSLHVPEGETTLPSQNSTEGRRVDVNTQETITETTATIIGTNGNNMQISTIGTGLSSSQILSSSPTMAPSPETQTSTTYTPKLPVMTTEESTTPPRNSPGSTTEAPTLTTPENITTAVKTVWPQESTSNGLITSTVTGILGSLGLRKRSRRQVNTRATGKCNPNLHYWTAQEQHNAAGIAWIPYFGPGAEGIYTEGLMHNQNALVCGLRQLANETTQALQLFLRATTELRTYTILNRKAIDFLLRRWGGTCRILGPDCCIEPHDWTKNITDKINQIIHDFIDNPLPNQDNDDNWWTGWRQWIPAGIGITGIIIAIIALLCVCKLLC", "assay": "cell-based or functional assay", "units": {"Authentic virus neutralization IC50": "pM"}, "values": [
      {"binder": "B1", "Authentic virus neutralization IC50": 300000},
      {"binder": "B3", "Authentic virus neutralization IC50": 200},
      {"binder": "B4", "Authentic virus neutralization IC50": 200}
    ]},
    {"molecular_target": "GP of authentic (wild-type) BDBV (Bundibugyo virus (BDBV))", "assay": "cell-based or functional assay", "units": {"Authentic virus neutralization IC50": "pM"}, "values": [
      {"binder": "B1", "Authentic virus neutralization IC50": 300},
      {"binder": "B3", "Authentic virus neutralization IC50": 600},
      {"binder": "B4", "Authentic virus neutralization IC50": 600}
    ]}
  ]
}
